Consider 30 sequences from the nanobody polyreactivity screen of Harvey et al. (2022).

The series in a line: yeast display, Sf9 membrane polyspecificity reagent, FACS + sequencing; frameworks hold sequencing errors. The gist of the method:
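Genes from sorted yeast were amplified by colony PCR, read by MiSeq 2 × 250 sequencing and filtered on CDR length. These cells carried a synthetic nanobody library in Saccharomyces cerevisiae BJ5465 and were sorted by FACS into low and high (top ~1%) gates on anti-HA and streptavidin fluorescence. Polyreactivity is labelled according to the gate of origin.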
“QVQLVESGRGLVQAGGSLRLSCAASGSIFIVYAMGWYRQAPGKERELVAAISWSGGSTYYADSVKGRFTISRDNAKNTVYLQMNSLKPEDSAVYFCAAKYTLPFRDVKYYSWGQGTQVTVSS”: the “polyreactivity (PSR sort gate)” value was “high polyreactivity”.

As for “QVQLVESGRGLVQAGGSLRLSCAASGSIFIYYAMGWYRQAPGKERELVAAISFSGARTYYADSVKGRFTISRDNAKNTVYLQMNSLKPEDTAVYYCNGARYSRRWPSEYWGQGTQVTVSS”, the “polyreactivity (PSR sort gate)” value is “low polyreactivity”.

Consider “QVQLVESGRGLVQAGGSLRLSCAASGSIFTSYVMGWYRQAPGKERELVAAISQTGSSTYYADSVKGRFTISRDNAKNTVYLQMNSLKPEDTAVYYFAARRSRGSVRNYDYWGQGTKVTVSS”, for which the “polyreactivity (PSR sort gate)” value is given as “high polyreactivity”.

With “QVQLVESGRGLVQAGGSLRLSCAASGSIFYGNTMGWYRQAPGTERELVASITRPGDRTYYADSVKGRFTLSRDNAKNTVDLQMNSLKAEDTAVYYCNAGLVLPPPGACIVYFDQMDYWGQGTQVTVSS”, the “polyreactivity (PSR sort gate)” value was “low polyreactivity”.

Take “QVQLVESGRGLVQAGGSLRLSCAASGSMFGKHVMGWYRQAPGKERELVAAISRSGGRTYYADSVKGRFTISRDNANNTVYLQMNTLKPEDTAVYYCAADGQPIGQQTYDYWGQGTQVTVSS”: the “polyreactivity (PSR sort gate)” value is listed as “high polyreactivity”.

“QVQLVESGRGLVQAGGSLRLSCAASGSNFSVYAMGWYRKAPGKERELVAGITRGGSTYADSVKGRFTISRDNAKNTVYLQMNCLKPEDTAVYYFNAVWSNFRLGYDYWGQGTQVTVSS”: the “polyreactivity (PSR sort gate)” value is recorded as “high polyreactivity”.

Take “QVQLVESGRGLVQAGGSLRLSCAASGSTFDGYAMGWYRQAPGKERELVAAINWGGGSTRYADSVKGRFTISRDNAKNTVYLQMNSLKPEDTAVYYCAKYTSSRFDAFNYWGQGTQVTVSS”: the “polyreactivity (PSR sort gate)” value is given as “high polyreactivity”.

As to “QVQLVESGRGLVQAGGSLRLSCAASGSTFHGYPMGWYRQEPGKERELVAAITSGDSTNYADSVKGRYTISRDNAKNTVYLQMNSLKPEDTAVYYCAALQADRDRYPEFDLMDYWGQGTQVTVSS”, the “polyreactivity (PSR sort gate)” value was “low polyreactivity”.

With “QVQLVESGRGLVQAGGSLRLSCAASGSTFLYYAMGWSRQAPGKEMELVAVISWSGVSTYYADSVKGRFTISRDNAKTTVYLQMNSLKPEDTAVYYCAAVPVHTGSLYWGFTTGYDYWGQGTQVTVSS”, the “polyreactivity (PSR sort gate)” value is given as “low polyreactivity”.

With “QVQLVESGRGLVQAGGSLRLSCAASGSTFQYYAMGWYRPATGKERELDAAINSRGTSTFYADSVKGRFTISRDNAKNTVYLQMNSLKPEDTAVDYCNARGPRYGNRYRNDYWGQGTQGTVSS”, the “polyreactivity (PSR sort gate)” value is given as “high polyreactivity”.

For the sequence “QVQLVESGRGLVQAGGSLRLSCAASGSTFRYNAMGWYRQAPGKERELVAAINRGGGTDYADSVKGRFTISRDNAKNTDYLQMNSLKPEDTAVYYCAKQFVSYNRWLAYGYWGQGTQVTVSS”, the “polyreactivity (PSR sort gate)” value is recorded as “low polyreactivity”.

On to “QVQLVESGRGLVQAGGSLRLSCAASGSTFRYYAMGWYRQAPGKERELVASITRGASTNYADSVKGRFTISRDNAKNTVYLQMNSLKPEDTAVYYCAADNYCHTFGGTDLRDDYWGQGTQVTVSS”, for which the “polyreactivity (PSR sort gate)” value was “low polyreactivity”.

In the case of “QVQLVESGRGLVQAGGSLRLSCADSGYIFWYYAMGWYRQAPGKERELVATITVSAGTTYFADSVKGRFTISRDNAKNTVYLQMNSLKPEDTAVYYCNKRSALSFVYDFDYWGQGTQVTVSS”, the “polyreactivity (PSR sort gate)” value was “low polyreactivity”.

In the case of “QVQLVESGRGLVQAGGSLRLSCASSGSTFRWNAMGWYRQAPGKERELVAAISQSGSSTYYADSVKGRFTISRDNAKNTVYLQMNSLKPEDTAVYYCAARTGRKYYYWGQGTQVTVSS”, the “polyreactivity (PSR sort gate)” value is reported as “low polyreactivity”.

As to “QVQLVESGRGLVQAGGSLRLSCEDSGNIFPYYAMGWYRQAPGKERELVAAISGSGDRTYYADSVNGRFTISRDNAKNTVYLQMNSLKPEDTAVYYCAAYRRYYGWYDYWGQGTQVTVSS”, the “polyreactivity (PSR sort gate)” value was “high polyreactivity”.

Turning to “QVQLVESGRGLVQAGGSLRLSCGASGRTFGYYGMVGYRQATGKERELVASISRRGVSTYYADSVKGRFTISRDNAKNTVYLQMNSLKPEDTAVYYCAKDYWGYKYDYWGKGTQVTVSS”, the “polyreactivity (PSR sort gate)” value is on record as “high polyreactivity”.

Take “QVQLVESGRGLVQAGVSLRLSCADSGSTFDYNAMGCYRQATGKERELVPVNRSGGTTYYADSVKGRFTISRDNANNTVYLQMNSLKPEDTAVYYCAAAFQRRAGSYGGSRRYGYWGQVTQVTVSS”: the “polyreactivity (PSR sort gate)” value is given as “high polyreactivity”.

For “QVQLVESGRGLVQARGSLRLSCAASGFIFYRYAMGWYRQAPGKEREFVAANTSTGTTYYADSVKGRFTISRDNAKNTVYLQMNSLKPEDTAVYYCNAGFRYKYQSSRVDYWGQGTQVTVSS”, the “polyreactivity (PSR sort gate)” value was “high polyreactivity”.

As to “QVQLVESGRGLVQEGGSLRLSCAPSGLIFRYYAMGWYRQAPGKEREFVAAISGRGASTYYADSVKGRFTISRDNAKITGYLQMNSLTPEDTAVYYCATYFPSAVVAFHMDYWGQGTQVTVSS”, the “polyreactivity (PSR sort gate)” value is recorded as “high polyreactivity”.

“QVQLVESGRRLVQAGGSLRLTCAASGRTFVTNAMGWYRQAPGKERELVAAISSKGGSTYYADSVKGRFTISRDNAKNTVYLQMNSLKPEDTAVYDCNAEGQPLYVSWHDHRYIYGFDYWGQGTQVTVSS”: the “polyreactivity (PSR sort gate)” value is on record as “low polyreactivity”.

“QVQLVESGSGLVQAGGSLRLSCAASGSIFVNYGMGRYRQAPGKERELVAAINRNGGRTYYADSVKGRFTISRDNAKNTVYLQMNSLKPEDTAVYYCNALYPGGLSLSRLDYWGQGTQVTVSS”: the “polyreactivity (PSR sort gate)” value is on record as “high polyreactivity”.

In the case of “QVQLVESGVCIVQAGGSLRLSCAASGFTFRENAMGWYRQAPGKERELVAAISKRGGTTYYADSVKGRFTSSRDYAKNTVILQTNSLKPEDTAVYYCATQYLIQNKYYSWGQGTQVTVSS”, the “polyreactivity (PSR sort gate)” value was “high polyreactivity”.

As to “QVQLVESGVCLVQAGGSLRLSCAASGSTITYNAMGWYRQAPGKERELVASISSGTTTYYADSVKGRFTISRDNAKNTVYLQMNSLHTEDTAVYYCAVDSCSRVQGWLAHNYDYWGQGTQVTVSS”, the “polyreactivity (PSR sort gate)” value was “low polyreactivity”.

Take “QVQLVESGVGFVQAGGSLRLSCAASGSTFGYYDMGWYRQAPGKERELVASIRSSGSTYYADSVKGRFTISRDNPKHTVYFQMNSLKPEDTAVYYCNTASLYHRWQGSWPKYDYWGQGTQVTVSS”: the “polyreactivity (PSR sort gate)” value is given as “high polyreactivity”.

Consider “QVQLVESGVGIVQAGGSLRLSCAASGRIFDLYAMVWYRQAPGKEREFVAAISLSGGSTYYADSVKGRFTISRDNAKNTVYLQMNSLKPEDTAVYYCAADHTGKTYDYNYWGQGTQVTVSS”, for which the “polyreactivity (PSR sort gate)” value is listed as “low polyreactivity”.

With “QVQLVESGVGIVQAGGSLRLSCAASGSTFVSNAMGWYIPAPGKERELVAAISWTGGSTYYADSVKGRFTISRDNAKTTVYLQMNSLKPEDTAVYYCAAQLTDTYYQYDYWGQVTQVTVSS”, the “polyreactivity (PSR sort gate)” value is listed as “low polyreactivity”.

On to “QVQLVESGVGIVQAGGSLRVSCAASGFTFYSYAKGWYRQAPGKERELVAAISYTGGSTYYADSVKGRFTISRDNAKNTVSLQMNSQKPEDSAVYYCAAKLWTRVTRMRRWVDYWGQGTQVSVSS”, for which the “polyreactivity (PSR sort gate)” value is “high polyreactivity”.

As to “QVQLVESGVGLDQAGGSLRLSCAASGSTFWWNNMVCYRQAPGKERELVAAITTGGGTYYADSVKGRFTISRDNAKNSVYLQMNSLKPEDTAVYYCAATVRSYGWYAYHYSTYGYWGKGTQVTVSS”, the “polyreactivity (PSR sort gate)” value is given as “low polyreactivity”.

For “QVQLVESGVGLLQAGGSLRLSCAASGFIIVPYAMGWYIQAPGKERELVATITWRGDSTYYADSVKGRFTISRDNAKNTVYLQMNSLKPEDTAVYYCAKRVVRGKVDYWGQGTQVTVSS”, the “polyreactivity (PSR sort gate)” value is recorded as “low polyreactivity”.

Consider “QVQLVESGVGLVHAGGSLRLSCAASGFIFVRYSIGWYRQAPGKEREFVASISWSGGSTYYADSVKGRFTISRDNAKNTVYLQMNSLKPEDTAVYYCAAYVRKDRSRGLYGYWGQGTQVTVSS”, for which the “polyreactivity (PSR sort gate)” value is “high polyreactivity”.
